*1 amine or outer side, *2 acyl side, *3 side chain or, on linkers, in order; H or OH if unused. Where a SMILES comes first, the peptide text is derived from it. Bridges are numbered along the chain shown (N, C = ends). Side-chain parts run from the residue outwards. [ ]: non-standard residue; d: D form. The star is where a group is joined. X1 = O=C([C@@H](Cc1ccccc1)N(c1c(NCCCCCN(O)[*:3])c(=O)c1=O)[*:1])[*:2]; X2 = CC(=O)N(O)CCCCCNC(=O)CCC(=O)N(O)CCCCCN*; Thr(ol) = C[C@@H](O)[C@H](N)CO; Suc = O=C(CCC(=O)[*:2])[*:1]
Legend:
[1] = test system: AR42J (rat pancreatic cancer cell line) tumour; assay: in vivo; set-up: species or system mice; conditions: mouse
Description: (§1) PET-CT imaging and Biodistribution of Octreotate/tide Tracers. Female Balb/c nude mice (age 9 weeks) were inoculated subcutaneously on the right flank with 3×10^6 AR42J cells in PBS:Matrigel (1:1). Mice were weighed and tumours measured twice weekly using electronic callipers. Tumour volume (mm^3) was calculated as length^2×width/2. 12 mice were assigned for imaging and biodistribution studies (tumour volumes: 170-550 mm^3). DFOSqTIDE (2.5 MBq) and DFOSqTATE (2.2 MBq) were administered intravenously by tail vein injection to mice on. At 1, 2, 4 and 18 hr post injection three mice were anaesthetised using isoflurane and placed on the imaging bed of a G8 PET/CT scanner (Perkin Elmer). A CT scan was performed which was immediately followed by a 10 min static PET scan. PET images were reconstructed using the maximal likelihood and expectation maximization (ML-EM) algorithm. PET images were analysed using VivoQuant (Invicro) and Tumour SUVmax, Tumour SUVmax/background average (TBR) and Tumour SUVmax/liver average (TLR) determined. After imaging at 18 hr mice were euthanised and selected tissues were excised, weighed and counted using a Capintec (Captus 4000e) gamma counter. A separate cohort of 3 mice was harvested at 1 hr post injection for biodistribution analysis. The data was analysed using GraphPad Prism 7 and differences between tracers analysed using a t-test.
AR42J (rat pancreatic cancer cell line) tumour bearing Balb/c nude mice as described above were injected intravenously via tail vein injection with ^89ZrDFOSqTATE or ^89ZrDFOSqTIDE (2-3 MBq). At 1, 2, 4 and 18 h post-injection the mice were anaesthetised with isoflurane and imaged over 10 min. At 1 hr after injection of DFOSqTIDE and DFOSqTATE, uptake into kidney, tumour and liver was observed. Representative PET images of mice injected with DFOSqTIDE and DFOSqTATE are shown in FIG. 12 and quantitation of the tumour SUVmax for each radiotracer is summarised in FIG. 13a.
^68GaDFOSq-TIDE and ^68GaDFOSq-TATE tracers were injected (2-3 MBq, 1 μg, 0.5 nmol) intravenously via tail vein to AR42J (rat pancreatic cancer cell line) tumour bearing Balb/c nude mice. PET images were acquired at 1 and 2 h post-injection (FIGS. 15a and b). […] Quantification of the uptake in the images using Standard Uptake Value (SUVmax=radioactivity in a tissue/injected activity/BW) confirms the higher uptake for ^68GaDFOSq-TATE (1 h; SUVmax 1.8±0.2, compared to 1.21±0.20, FIG. 15c). The higher tumor uptake of ^68GaDFOSqTATE was also associated with a higher degree of tumor retention at 2 h post injection with only a 5% reduction in SUVmax whereas the tumor SUVmax for ^68GaDFOSqTIDE reduced by 30% ^68GaDFOSqTATE at 2 h post injection. Both tracers clear rapidly from the blood and there is low uptake in bone consistent with stable gallium-68 complexes as well as low uptake in muscle. Both tracers have significant uptake in the kidneys and bladder.

[2] = test system: AR42J (rat pancreatic cancer cell line) tumour; assay: in vivo; set-up: species or system mice; conditions: female, Balb/c nude, mouse, iv
Description: as §1, with “t-test. The high tumor uptake was confirmed by an ex vivo biodistribution study in the same mouse model where mice were injected with either ^68GaDFOSq-TIDE and ^68GaDFOSq-TATE (2-3 MBq, 1 μg, 0.5 nmol) and then euthanised at either 1 h or 2 h after administration. The amount of injected activity per gram of tissue (% IA/g) in the tumor and major organs was quantified (FIG. 16).” for “t-test.”

[3] = test system: LNCaP (human PSMA expressing prostate cancer cell line) tumour; set-up: species or system mice; conditions: mouse, in vivo
Description: (§2) PET-CT imaging and Biodistribution. Male Balb/c nude mice (age 8.5 weeks) or Male NSG mice (age 12 weeks) were inoculated subcutaneously on the right flank with 6×10^6 LNCap cells in PBS:Matrigel (1:1). Mice were weighed and tumours measured twice weekly using electronic callipers. Tumour volume (mm^3) was calculated as length×width×height×π/6. Mice were assigned for imaging and biodistribution studies (tumour volumes: 85-450 mm3). ^89Zr-DFOSq-PSMA tracers were then administered intravenously by tail vein injection to 6 mice. At 1, 2, 4 and 18 hr post injection three mice were anaesthetised using isoflurane and placed on the imaging bed of a G8 PET/CT scanner (Perkin Elmer). A CT scan was performed and followed immediately by a 10 min static PET scan. PET images were reconstructed using the maximal likelihood and expectation maximization (ML-EM) algorithm. PET Images were analysed using VivoQuant (Invicro) and Tumour SUVmax or Tumour SUVmax/background average (TBR) determined. After imaging at 18 hr mice were euthanised and selected tissues were excised, weighed and counted using a Capintec (Captus 4000e) gamma counter. A separate cohort of 3 mice was harvested at 1 hr post injection for biodistribution analysis as above. The data was analysed using GraphPad Prism 7 and differences between tracers analysed using a t-test.
(§3) ^89Zr Labelled tracers: The ^89Zr radiolabelled PSMA tracers were injected intravenously via tail vein to LNCaP (human PSMA expressing prostate cancer cell line) tumour bearing mice. At 1, 2, 4 and 18 h post-injection the mice were anaesthetised with isoflurane and imaged over 10 min. The representative PET images of mice injected with ^89Zr radiolabelled PSMA tracers at 1 and 18 hr are shown in FIG. 1 and quantitation of the Tumour SUVmax for each tracer is shown in FIG. 2a. […] There was a trend for higher tumour SUVmax for (4) tracer compared to all other tracers at all time points. […] A comparison of tumour uptake values is shown in FIG. 2b and the tissue biodistribution data for the tracers at 1 and 18 hr is summarised in FIG. 3.
(§4) ^68Ga Labelled tracers: Representative PET images of mice injected with ^68Ga(1) and ^68Ga(4) are shown in FIG. 4 and quantitation of the tumour SUVmax is shown in FIG. 5a. […] Tumour uptake of ^68Ga(4) was 1.6 and 1.8 fold higher than ^68Ga(1) at 1 and 2 hr p.i., respectively. This is consistent with the biodistribution results where tumour % ID/g for ^68Ga(4) was higher than ^68Ga(1) at 1 hr (10.8±1.3 vs 6.5±0.4) and at 2.5 hr (8.6±1.0 vs 4.1±0.5) p.i. […] (6.5±0.4% ID/g at 1 hr vs 4.1±0.5% ID/g at 2.5 hr). In contrast, there was no significant change in ^68Ga(4) tumour retention at 1 and 2.5 p.i. (10.8±1.3% ID/g vs […], FIG. 5b).

[4] = test system: LNCaP (human PSMA expressing prostate cancer cell line) tumour; assay: in vivo; set-up: species or system mice; conditions: mouse
Description: as §2, §3, §4

[5] = in vivo; set-up: species or system mice; conditions: male, mouse, total radioactivity
Description: as §2, §3, §4

[6] = test system: LNCap cells; assay: Cell binding and internalization studies in LNCap cells; type: cell-based, human; conditions: 89Zr tracers, 60 min, 37° C.
Description: Cell binding and internalization studies. LNCap cells (150,000/well) were plated in RPMI 1640 medium containing 10% FBS into wells of a 24 well plate pre-coated with 0.05% poly-L-lysine and incubated overnight at 37° C. and 5% CO2. The following day cells were washed twice with PBS and incubated for 1 hour at 37° C. in 1 mL per well internalisation buffer (MEM, 1% FBS). The buffer was then replaced with 1 ml per well of a warmed solution containing 0.5 μCi ^89Zr-DFOsq-PSMA tracers in internalisation buffer. Cells were incubated in triplicate for 5, 15, 30 or 60 min at 37° C. and 5% CO2. At each time point, cells were washed twice with ice-cold PBS and the washes collected for counting (unbound fraction). Cells were then incubated twice for 10 min in saline containing 10 μM PMPA and each wash collected for counting (surface bound fraction). The cells were then solubilised in 1 M NaOH (internalised fraction). Total protein content was determined in this fraction using a BCA protein assay kit (Pierce). A Perkin Elmer 2480 Wizard automatic gamma counter was then used to measure Zr-89 radioactivity in unbound, surface bound and internalised fractions. Surface bound and internalised fractions were expressed as percentage of total added radioactivity per mg of protein. Non-specific membrane binding and internalisation was determined by incubating cells with the ^89Zr-DFOSq-PSMA tracers in the presence of excess (10 μM) PMPA. ^89Zr-DFOSq-PSMA tracers uptake at 60 min was also determined in DU145 cells (seeded at 125,000 cells/well), a PSMA negative cell line. The raw data was analysed using GraphPad Prism 7.

For `CC(=O)N(O)CCCCCNC(=O)CCC(=O)N(O)CCCCCNC(=O)CCC(=O)N(O)CCCCCNc1c(N[C@H](Cc2ccccc2)C(=O)N[C@H]2CSSC[C@@H](C(=O)N[C@H](C(=O)O)[C@@H](C)O)NC(=O)[C@H]([C@@H](C)O)NC(=O)[C@H](CCCCN)NC(=O)[C@@H](Cc3c[nH]c4ccccc34)NC(=O)[C@H](Cc3ccc(O)cc3)NC2=O)c(=O)c1=O` (89Zr complex, metal not drawn) [^89ZrDFOSqTATE] (H-[X1]([Suc-X2])CY[dW]KTCT-OH; disulfide 2-7), the “Tumour SUVmax 1 h pi” value [1] was 3.1 ± 0.2, the “Tumour SUVmax 18 h pi” value [1] was 1.3 ± 0.15 and the “Tumour SUVmax Clearance %” value [1] was 58%. For the same molecule, the “Tumour Uptake % ID/g 1 h pi” value [2] was 10.4 ± 0.5 % ID/g and the “Tumour Uptake % ID/g 18 h pi” value [2] was 4.9 ± 0.8 % ID/g.

For `CC(=O)N(O)CCCCCNC(=O)CCC(=O)N(O)CCCCCNC(=O)CCC(=O)N(O)CCCCCNc1c(N[C@H](Cc2ccccc2)C(=O)N[C@H]2CSSC[C@@H](C(=O)N[C@H](CO)[C@@H](C)O)NC(=O)[C@H]([C@@H](C)O)NC(=O)[C@H](CCCCN)NC(=O)[C@@H](Cc3c[nH]c4ccccc34)NC(=O)[C@H](Cc3ccc(O)cc3)NC2=O)c(=O)c1=O` (89Zr complex, metal not drawn) [^89ZrDFOSqTIDE] (H-[X1]([Suc-X2])CY[dW]KTC[Thr(ol)]; disulfide 2-7), the “Tumour SUVmax 1 h pi” value [1] was 1.1 ± 0.07, the “Tumour SUVmax 18 h pi” value [1] was 0.5 ± 0.01 and the “Tumour SUVmax Clearance %” value [1] was 55%. For the same molecule, the “Tumour Uptake % ID/g 1 h pi” value [2] was 3.4 ± 0.4 % ID/g and the “Tumour Uptake % ID/g 18 h pi” value [2] was 1.7 ± 0.1 % ID/g.

For `CC(=O)N(O)CCCCCNC(=O)CCC(=O)N(O)CCCCCNC(=O)CCC(=O)N(O)CCCCCNc1c(NCCN(CCNC(=O)CCCC(=O)NCc2ccc(C(=O)NCCCCC(NC(=O)NC(CCC(=O)O)C(=O)O)C(=O)O)cc2)CCNC(=O)CCCC(=O)NCc2ccc(C(=O)NCCCCC(NC(=O)NC(CCC(=O)O)C(=O)O)C(=O)O)cc2)c(=O)c1=O` (single isomer, unassigned) [^68Ga(4), metal not drawn], the “Gut uptake in PET images” value [3] was “no gut uptake”, the “Kidney uptake in PET images” value [3] was “high kidney uptake” and the “LNCap tumour uptake in PET images” value [3] was “moderate tumour uptake”. For the same molecule, the “Tumour SUVmax 1 h pi” value [3] was 1.6 ± 0.10, the “Tumour SUVmax 2 h pi” value [3] was 1.5 ± 0.09 and the “Tumour Uptake % ID/g 1 h pi” value [4] was 10.8±1.3 % ID/g. The tissue uptake at 1 h ([5]; Tumour Uptake % ID/g 1 h pi) was 10.8 ± 1.26 %ID/g and the tissue uptake at 2.5 h ([5]; Tumour Uptake % ID/g 2.5 h pi) was 8.6 ± 0.93 %ID/g.

With `CC(=O)N(O)CCCCCNC(=O)CCC(=O)N(O)CCCCCNC(=O)CCC(=O)N(O)CCCCCNc1c(NCCN(CCNC(=O)CCCC(=O)NCCCCC(NC(=O)NC(CCC(=O)O)C(=O)O)C(=O)O)CCNC(=O)CCCC(=O)NCCCCC(NC(=O)NC(CCC(=O)O)C(=O)O)C(=O)O)c(=O)c1=O` (single isomer, unassigned) [^89Zr(3), metal not drawn] the “Cell Uptake % AR/mg protein (60 min) Surface bound” value [6] was 2.2 ± 0.14 % AR/mg protein, the “Cell Uptake % AR/mg protein (60 min) internalized” value [6] was 3.8 ± 0.39 % AR/mg protein and the “Tumour SUVmax 1 h pi” value [3] was 1.7 ± 0.12. For the same molecule, the “Tumour SUVmax 18 h pi” value [3] was 0.6 ± 0.06, the “Tumour SUVmax Clearance %” value [3] was 65% and the “Tumour Uptake % ID/g 1 h pi” value ([4]; male, iv, 1 h) was 5.9 % ID/g. For the same molecule, the “Tumour Uptake % ID/g 18 h pi” value ([4]; male, iv, 18 h) was 2.5 ± 0.22 % ID/g.
